# Results published in patent publication US20240239878A1 (SHANGHAI QILU PHARMACEUTICAL RESEARCH AND DEVELOPMENT CENTRE, published 2024).
# Where a chain is given by its changes, count along the chain named. Where two headings read alike, the source gives them in different places.
# T1: human DLL3 on SHP-77 cells (human, UniProt Q9NYJ7 27-618)
# T1 construct: also called DLL3-expressing cells (SHP-77)
# T1 sequence: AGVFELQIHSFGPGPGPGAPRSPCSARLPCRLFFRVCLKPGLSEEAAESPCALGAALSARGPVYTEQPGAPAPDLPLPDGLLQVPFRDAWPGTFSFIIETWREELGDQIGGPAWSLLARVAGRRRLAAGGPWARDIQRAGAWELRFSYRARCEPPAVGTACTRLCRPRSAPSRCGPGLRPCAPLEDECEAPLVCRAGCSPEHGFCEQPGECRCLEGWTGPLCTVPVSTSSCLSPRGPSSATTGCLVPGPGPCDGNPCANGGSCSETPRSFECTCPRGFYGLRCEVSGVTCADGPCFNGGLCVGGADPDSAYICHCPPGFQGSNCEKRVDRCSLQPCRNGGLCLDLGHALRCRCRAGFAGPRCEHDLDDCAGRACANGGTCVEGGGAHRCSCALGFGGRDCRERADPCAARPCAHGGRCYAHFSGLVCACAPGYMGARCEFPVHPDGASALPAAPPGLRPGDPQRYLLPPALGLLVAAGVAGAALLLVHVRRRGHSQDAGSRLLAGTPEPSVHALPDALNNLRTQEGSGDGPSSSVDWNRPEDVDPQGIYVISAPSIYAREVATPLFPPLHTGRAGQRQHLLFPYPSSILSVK
# T2: Cynomolgus monkey DLL3 on HEK293 cells (HEK293-cyno DLL3) (Cynomolgus monkey, UniProt Q9NYJ7 27-618 (human entry))
# T2 chain: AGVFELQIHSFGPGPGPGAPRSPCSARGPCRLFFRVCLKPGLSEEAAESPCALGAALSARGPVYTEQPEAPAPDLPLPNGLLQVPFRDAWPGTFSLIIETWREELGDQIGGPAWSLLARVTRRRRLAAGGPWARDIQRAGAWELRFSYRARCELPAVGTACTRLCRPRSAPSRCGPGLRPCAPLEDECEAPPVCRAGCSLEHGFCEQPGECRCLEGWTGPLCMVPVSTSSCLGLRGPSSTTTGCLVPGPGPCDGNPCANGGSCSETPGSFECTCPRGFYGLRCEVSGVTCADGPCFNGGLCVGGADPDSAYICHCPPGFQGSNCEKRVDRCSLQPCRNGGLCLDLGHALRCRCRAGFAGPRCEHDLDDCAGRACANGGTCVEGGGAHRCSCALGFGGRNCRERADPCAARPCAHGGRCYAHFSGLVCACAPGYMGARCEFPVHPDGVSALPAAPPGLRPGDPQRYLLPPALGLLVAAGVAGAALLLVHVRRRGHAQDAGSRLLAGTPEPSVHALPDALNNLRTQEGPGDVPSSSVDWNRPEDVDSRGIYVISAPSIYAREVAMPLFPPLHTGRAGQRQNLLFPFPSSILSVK
# B1: 47E12D12-1 mouse hybridoma-derived anti-DLL3 chimeric antibody (antibody, V domains shown)
# VH: EVQLVESGGGLVKPGGSLKLSCAASGFTFSDYGMHWVRQAPEKGLEWVAYISSGSSTIYYADTVKGRFTISRDNAKNTLFLQMTSLRSEDTAMYYCARNSRGFAYWGQGTLVTVSA
# VL: DIVLTQSPAIMSASPGEKVTMTCSASSSVSYMYWYQQKPGSSPRLLIYDTSNLASGVPVRFSGSGSGTSYSLTISRMEAEDAATYYCQQWSSYPRTFGGGTKLEIK
# B2: 47E12D12-2 mouse hybridoma-derived anti-DLL3 chimeric antibody (antibody, V domains shown)
# VH: B1 VH
# VL: DIVLIQSPTIMSASPGEKVTMTCSASSSVSSMHWYQQKSGTSPKRWIYDTSKLASGVPARFSGSGSGTSYSLTISTMEAEDAATYYCQQWNSYHLTFGAGTKLELK
# B3: 39E2D11-2 mouse hybridoma-derived anti-DLL3 chimeric antibody (antibody, V domains shown)
# VH: QVQLKQSGPGLVQPSQSLSITCTVSGFSLTSYGVHWVRQSPGKGLEWLGVIWSGGSTDYNAAFISRLSISKDNPKSQVFFKMNSLQADDTAIYYCARENYYGNSLWFFDVWGTGTTVTVSS
# VL: DIVLTQSPATLSVTPGDSVSLSCRASQSINNNLHWYQQKSHESPRLLIKYVSQSISGIPSRFSGSGSGTDFTLTINSVETEDFGMYFCQQTNSWPLTFGAGTKLELK
# B4: 40G3D1 mouse hybridoma-derived anti-DLL3 chimeric antibody (antibody, V domains shown)
# VH: QVQLQQSGAELVKPGASVKISCKASGYAFSSQWMNWVKQRPGKGLEWIGQIYPGNGDTNYNGKFKGKATLTADKSSSTAYIQLSSLTSEDSAVYFCARWFAYWGQGTLVTVSA
# VL: B3 VL with A9V, I29V, N30R, T74S, M85V, T91S
# B5: H1-39E2D11 mouse hybridoma-derived humanized anti-DLL3 antibody (antibody, V domains shown)
# VH: QVQLVQSGAEVKKPGASVKVSCKASGYTFISYWITWVRQAPGQGLEWMGDIYPGSGSTTNYNEKFKSRVTMTRDTSTSTVYMELSSLRSEDTAVYYCARETTVGGAYAMDYWGQGTLVTVSS
# VL: EIVLTQSPATLSLSPGERATLSCRASQSINNNLHWYQQKPGQAPRLLIYYVSQSISGIPARFSGSGSGTDFTLTISSLEPEDFAVYYCQQTNSWPLTFGGGTKLEIK
# B6: hDLL3-12-1 camelid-derived humanized anti-DLL3 antibody (antibody, V domains shown)
# VH: QVQLVESGGGVVQPGRSLRLSCAASGFAFSSYDMHWVRQAPGKGLEWVSSISRDGRGPRYADSVKGRFTISRDNSKNTLYLQMNSLRAEDTAVYYCSKGYPIMGGTTQGTLVTVSS
# B7: hDLL3-12-2 camelid-derived humanized anti-DLL3 antibody (antibody, V domains shown)
# VH: B6 VH with G44D, L45F
# B8: hDLL3-276 camelid-derived humanized anti-DLL3 antibody (antibody, V domains shown)
# VH: QVQLVESGGGVVQPGGSLRLSCAASGSTASTTYMGWFRQAPGKGREGVAIIYTARDNPWYADSVKGRFTISRDNSKNTLYLQMNSLRAEDTAVYYCAATLANPTRTAWGQGTLVTVSS
# Columns and labels:
# [1] = biological target: T1, human DLL3 on SHP-77 cells; assay: flow cytometry, SHP-77 cells
# Protocol: SHP-77 and HEK293-cyno DLL3 cells were cultured. The culture medium for SHP-77 cells were RPMI1640+10% FBS, and the culture medium for HEK293 cyno DLL3 cells was DMEM+10% FBS+200 μg/ml Hygromycin. The cells were cultured in a T75 cell culture flask at a 37° C. 5% CO₂ incubator. When using cells, they are washed with sterile DPBS, digested with 0.25% trypsin EDTA for about 5 minutes, and then stopped with a complete medium.
# (§1) The digested cells were centrifuged at 1000 rpm for 5 min at room temperature. The supernatant was discarded and the cells were resuspended in 100 μL of 1% BSA (in PBS). The cells were counted and adjusted to a cell density of 1E6/m. The dilute cells were seeded in a 96-well round-bottom culture plate (corning 3799), and centrifuged at 1500 rpm for 5 min at 4° C. The supernatant was discarded and the cells were stored at 4° C. until use. Antibody samples to be tested were diluted with 1% BSA (in PBS) at a starting concentration of 100 nM, downwards by a 10-fold gradient for 7 concentrations. The cells were resuspended with the diluted antibody at 100 μL/well and incubated for 1 hour at 4° C. The cells were centrifuged at 1500 rpm for 5 minutes at 4° C. and the supernatant was discarded. The cells were resuspended and washed with 160 μL of 1% BSA (in PBS), centrifuged at 1500 rpm for 5 minutes at 4° C. The supernatant was discarded. The secondary antibody (goat anti human IgG Fc PE) was diluted 1:200 with 1% BSA (in PBS) according to the manufacturer's instructions and the cells were resuspended with the diluted secondary antibody. 100 µL/well, and incubated for 0.5 h at 4° C. The cells were centrifuged at 1500 rpm for 5 minutes at 4° C. and the supernatant was discarded. The cells were resuspended and washed with 160 μL of 1% BSA (in PBS), centrifuged at 1500 rpm for 5 minutes at 4° C. The supernatant was discarded. The cells were resuspended in 100 μL of 1% BSA (in PBS), and filtered across a 300 mesh gauze. The mean fluorescence intensity of the PE channels was measured by flow cytometry.
# (§2) The analyzed mean fluorescence intensity was imported into Graphpad to analyze the median-binding concentration (hereinafter referred to as EC50) of antibody and cell and the top mean fluorescence intensity (Top MFI).
# [2] = biological target: T1, human DLL3 on SHP-77 cells; assay: flow cytometry, SHP-77 cells; remark: listed apart in the source
# Protocol: SHP-77 cells were cultured. The culture medium for SHP-77 cells was RPMI1640+10% FBS. The cells were cultured in a T75 cell culture flask at a 37° C. 5% CO₂ incubator. When using cells, they are washed with sterile DPBS, digested with 0.25% trypsin EDTA for about 5 minutes, and then stopped with a complete medium.
# as §1, with “plated” for “seeded”, “antibody,” for “antibody.”
# as §2
# [3] = biological target: T1, human DLL3 on SHP-77 cells; assay: flow cytometry, SHP-77 cells; remark: listed apart in the source
# Protocol: (§3) SHP-77 and HEK293-cyno DLL3 cells were cultured. The culture medium for SHP-77 cells were RPMI1640+10% FBS, and the culture medium for HEK293 cyno DLL3 cells were DMEM+10% FBS+200 μg/ml Hygromycin. The cells were cultured in a T75 cell culture flask at a 37° C. 5% CO₂ incubator. When using cells, they are washed with sterile DPBS, digested with 0.25% trypsin EDTA for about 5 minutes, and then stopped with a complete medium.
# as §1, with “antibody,” for “antibody.”, “μL/well,” for “µL/well,”
# as §2
# [4] = biological target: T2, Cynomolgus monkey DLL3 on HEK293 cells …; assay: flow cytometry, HEK293-cyno DLL3 cells
# Protocol: as §3
# as §1, with “antibody,” for “antibody.”, “μL/well,” for “µL/well,”
# as §2
Binder,EC50 [1] [nM],Top MFI [1] [MFI],EC50 [3] [nM],Top MFI [3] [MFI],EC50 [4] [nM],Top MFI [4] [MFI],also measured
B1,1.45,178,–,–,–,–,–
B2,69.3,455,–,–,–,–,–
B3,8.63,193,–,–,–,–,–
B4,–,369,–,–,–,–,–
B5,–,–,–,–,–,–,EC50 [2]: 2.13 nM; Top MFI [2]: 1430 MFI
B6,–,–,0.052,690,2.36,178,–
B7,–,–,0.081,804,1.35,190,–
B8,–,–,0.389,622,1.01,148,–
